Data as given in the DeepSol protein solubility set.

Experiment: soluble on expression in E. coli; label from the status in PepcDB or PDB records

| Sequence | soluble on expression in E. coli |
| --- | --- |
| MAKGASISGFPEWLPSERVVEQRVIDTLRNVFELNGFIGIETRAVEQGSSLLKKGETSKEIYLLSRLQEVGHESDTPIEDRLGLHFDLTVPLSRYVVEHSGDLAFPFKRWQIQKVWRGERPQEGRFREFVQADIDVIGNGDLPDHYEVELPLVMVSALERLREFGLPKATVHANNRKLSEGFYRGLGLTDIEGVLREIDKLDKIGADEVAKLLVEGCGADEAQARACLELAELTAADGKELSDKFDALCAKHDIASDSDAYVLARQGLDTLAMIVDEAARIRPGSVIADLKIARGLDYYTGSVYETFLDGAAALGSICSGGRYDNLASQGNKKYPGVGLSIGLSRLVSYMLHTAGAHANRVSPASVLVAVWNEADRSASNLIANQLRSRGIAADVAPTAAKLGKQIKYADKLGIPYVWFPADASEEGAQDEVKNIITGDQRPADAQSWEPDTVYAQQTVTVEA | soluble |
| MAKIDIIDNYETLLISVEEIRASLESLHAWLDKDIDWDSQCDWYDFISQHSSQIAILNLIMYRLDSLEVEHRSVIENTMKGK | not soluble |
| MAKLENPILMAKIGGAQGLRGEVRVSTYTDDPMALGDYGNLVTADGRVFEILEVREGKNVVVVRFRGINDRNAAESLNGLELFIERDNLPDDELDDDEFYYADLEGLEAVDAEGKSYGAVSAVYDFGAGDLLELKGAGRRPALIPFSEAAVLEIDLEAGRILIDPMAAGLIDNPDDKDQNGMSPFGKKLEHHHHHH | not soluble |
| MAKMRRYPAVAGQFYPEGDALIEMLSSFFKDLGEEGTKRTITAGVAPHAGYVFSGFTASRTYKAIYEDGLPEVFVIFGPNHTGLGSPIALYPEGEWITPMGSIKVDSKFAKEIVKRSGIADLDDLAHKYEHSIEVQLPFIQYIAEKAGVEVKIVPITLGIQDEEVSRSLGRSIFEASTSLGRDTIIIASTDFMHYGSFYGYVPFRGRPEELPNMVRDWDMRIIRRILDFDLDGMFSEIREMNHTMCGPGGVGAGIIYSRLMKAKEAELLHYTTSFEVSRSPDAIVGYASIIMKRLEHHHHHH | not soluble |
| MAKMTTLKMKERLEKELQAPNRQFSYNRDNDALTVVQSGKKVTLAIPQIIANYENDGDAAVEKIVYYVEEGFRAAAGNVELENNKANVYPVVRATSFPGETKAGEVLLTDDHTAETKIFYAVDLGKSYRFIEESMLKKAQLTHEEIREAAFNNLANLEIPLKKDSVNGNDFYFVRTNDGYDASRLLNEAFLREMREKLTGEMVLAVPHQDVLIIGDIQDNTGYDVLAHMTMDFFADGLVPITSLPFVYNNGKLEPIFIMAKNRLKE | not soluble |
| MAKNHYDILRRHIRSEDLLETPEFGSGSRIVEEYWIQEPFTKAIIVENEDEFRNVYYALEPTVSSEEAEVISALYDDLKKILVLQDVSVDLEERAEVLVRAIEKLSKEYAVSFTDNFYSRMLYYLFRDFFGYGLIDPLMEDTNVEDISCDGYNIPIFIYHQKYGNVETNIVLDQEKLDRMVLRLTQRSGKHISIANPIVDATLPDGSRLQATFGTEVTPRGSSFTIRKFTIEPLTPIDLIEKGTVPSGVLAYLWLAIEHKFSAIVVGETASGKTTTLNAIMMFIPPDAKVVSIEDTREIKLYHENWIAEVTRTGMGEGEIDMYDLLRAALRQRPDYIIVGEVRGREAQTLFQAMSTGHASYSTLHAGDINQMVYRLESEPLKVPRSMLQFLDIALVQTMWVRGNTRLRRTKEVNEILGIDPVDKNLLVNQFVKWDPKEDKHIEVSMPKKLEKMADFLGVSVQEVYDEMLSRKRYLELMLKRGIRNYKEVTRYIHAYYRNPELAMTKMEEGL | soluble |
| MAKNKWQPTKHLGIYEYMTKKGKRYGIRVRYKQGNDYPEINKSGFETIAAAKVYKNNIENLKANKKEYVFTNEKLTLNTWFASYMEMFKKKNKSKDTIANKYSIYNNHLEIPFGNYYLTDISLDIYEDFLREKIKNGYANNSVKAMHKLMKSILNAAVRYEKLEKNRLQFAEIEQLEENEVIELKVLETDEFNVFISACRAFFTKYDFTMIYLAVWGMRRGEVMGVKLKNLTFDDAKQQVRITLDSTRTLRTPEGKGTKTPAGRRILLIDGEGYRLLKYSVEKAVSIAKDHGSVLHQDDFIFRNPTSNRPWAVTRMNDLLRKLEKEYDIKVYPHLLRHNFNTQALLAGANSNDLRKFIGHKNSSMTDHYSHATDEGREKLMNTMKDRLSGI | not soluble |
| MAKRFTLKDAEELYLVPHWSGGFFRVGEKGDLEVTPLGPKGPAASLLEIVEALRDEGRPLPLVLRFPQILEARVRDLNEAFLEAMAKYGYQGTYRGVYPVKVNQRRLVLETVARAGRPYHLGLEAGSKPELALILAQDLSEEALITTNGFKDDDFVRLALMGRKLGRNVVITLEKFAELFRVLRLSKELGVKPLLGIRYKLKAKGAGQWEASGGENAKFGLTTPEIVRAVEVLQEEGLLDALVMLHAHIGSQVTDIRRIKAAVREAAQTYVQLRKLGAPLRYLNLGGGLAVDYDGSKTNFYASANYTLSEYAENLVYVTKEVVEAQGEPHPILVTESGRAITAYHEVLVLQVIDVIAPPGEARPSPPPPEAHPLVKELWESLQSLSPKNFQEVYHDAFADKETLQTLYDLGLVSLRDRALAEEIFYHIARRVQTIAQNLPYVPDELEDLEKLLADKLVCNFSVFQSLPDAWAIHQLFPVVPLSRLLEPPTRRATLVDISCDSDGKMDRFIDLHDVRQTLPVHPVRPGEPYYLGVFLVGAYQDVLGSNHNLFGQVGEAHVRVEEEGFAIERFVGGETAERVIEKMGFTARELMLGVERLVRQSRLSPVEKGAFLERYARELQGYTYLED | soluble |
| MAKRGRPCGFDREQALRRALDVFWEAGYEGVTMAALKEAMGGICAPSMYAAYGSKEALFRSAVELYLSQECQLSKGAFALPTARESIAALLESAAVSYTTEGKPRGCLVDLSTTNFSPANKGVEDYLRDHRRRAARLLRERFARGVADGDVPAGADLDALTSFYSSVLQGLSIQARDGASRQQLLAIGRCAMAAWDSLLAVEAA | not soluble |
| MAKRKLTQNQTRRIQSNNAKTLHRHKKKEIEWSDEMLGESQEGVVVTRYSIHADVENEQGEIYRCNLRRTLSSLVVGDKVVWRKGNEQLQGVSGVIEAIHPRENEISRPDYYDGLKPIAANIDRIIIVSAVLPTLSLNIIDRYLVVCEIAGITPLIVLNKVDLLAQEQRQEIEDQLKIYQDIGYEILMISAKSGENMEKLTALLAQGTAIFVGQSGVGKSSLINHILPSVNAQVGDVSETSGLGQHTTTSSRLYHLPQGGNLIDSPGIREFGLWHLDAEQITKGYREFQYVLGTCKFRDCKHLSDPGCALREAVEQGKISPVRYDNYHRLIESLSETKSQRHFSLV | not soluble |
| MAKRVYLLSEARGLSRDLLGGKGHGLAEMAAAGLPVPPAFIVTTEACRQYLKAGEVPGLWGEVRAGMAALEGLTGKRFGRGEGKAPPLLVSVRSGAPVSMPGMMDTVLNLGLTLEGVEALARATGNPRFAWDSLRRLLAMYGEVVLGEGPEVFEGMLSALKAERGVGTDAALGPEDLEELAYRYLRHLEARGTPFPLDPWAQLQGAIEAVFRSWQNPRARTYRRIYGIPEDLGTAVVVQAMVFGNLGEDSGTGVGFTRNPATGEKGLYGEYLRNAQGEDVVAGVRTPEPLERLKGYAPGLYEELLQVAERLERHFRDMQDFEFTVERGRLFLLQTRAGKRTAQAAVRIAVEMAEEGLISREEAVMRVEANALPGLLRPSVDRDQAPRPLLKGLPASPGAAVGHAAFTNEAVERFHAQGLPAVLVRPETTPEDITGMYLAKGILTARGGLTSHAAVVARGLGVPAVVGAEALRVFPGEGRALAEGVEIREGDLLTLDGGTGEVYLGAVPLVEAGGEALLEKLLSWAEPHRRLGVRANADTPEDAQRARAFGAEGIGLCRTEHMFFREDRLPWVRRLILAETPEEEALALERLFHFQKEDFKEILRAMDGLPVTVRLLDPPLHEFLPPLEALARRAEEGDEEAGRLLRRAEALKEANPMLGFRGARLLLLRPGVFRMQLRALLEAARELKEAGHDPRPEVMVPLVADPKEVERARALAEELFREYGPIPFGTMVETPRAALLAAEIAPLVDFFSFGTNDLTQMAFGLSRDDAGKFLPRYVEEGLFPFDPTERLDEKGVGRLLRMAAEEGRKANPRLKLGLCGEHGGEAGSVRFVADLLDYTSASPFRVLTARLAAAQAGLSRALKPA | soluble |
| MAKWVYKFEEGNASMRNLLGGKGCNLAEMTILGMPIPQGFTVTTEACTEYYNSGKQITQEIQDQIFEAITWLEELNGKKFGDTEDPLLVSVRSGARASMPGMMDTILNLGLNDVAVEGFAKKTGNPRFAYDSYRRFIQMYSDVVMEVPKSHFEKIIDAMKEEKGVHFDTDLTADDLKELAEKFKAVYKEAMNGEEFPQEPKDQLMGAVKAVFRSWDNPEAIVYRRMNDIPGDWGTAVNVQTMVFGNKGETSGTGVAFTRNPDTGEKGIYGRYLINAQGEDVVAGVRTPQPITQLENDMPDCYKQFMDLAMKLEKHFRDMQDMEFTIEEGKLYFLQTRNGKRTAPAALQIACDLVDEGMITEEEAVVRIEAKSLDQLLHPTFNPAALKAGEVIGSALPASPGAAAGKVYFTADEAKAAHEKGERVILVRLETSPEDIEGMHAAEGILTVRGGMTSHAAVVARGMGTCCVSGCGEIKINEEAKTFELGGHTFAEGDYISLDGSTGKIYKGDIETQEASVSGSFERIMVWADKFRTLKVRTNADTPEDTLNAVKLGAEGIGLCRTEHMFFEADRIMKIRKMILSDSVEAREEALNELIPFQKGDFKAMYKALEGRPMTVRYLDPPLHEFVPHTEEEQAELAKNMGLTLAEVKAKVDELHEFNPMMGHRGCRLAVTYPEIAKMQTRAVMEAAIEVKEETGIDIVPEIMIPLVGEKKELKFVKDVVVEVAEQVKKEKGSDMQYHIGTMIEIPRAALTADAIAEEAEFFSFGTNDLTQMTFGFSRDDAGKFLDSYYKAKIYESDPFARLDQTGVGQLVEMAVKKGRQTRPGLKCGICGEHGGDPSSVEFCHKVGLNYVSCSPFRVPIARLAAAQAALNNK | soluble |
| MALADISGYLDVLDSVRGFSYLENAREVLRSGEARCLGNPRSEPEYVKALYVIGASRIPVGDGCSHTLEELGVFDISVPGEMVFPSPLDFFERGKPTPLVRSRLQLPNGVRVWLKLEWYNPFSLSVKDRPAVEIISRLSRRVEKGSLVADATSSNFGVALSAVARLYGYRARVYLPGAAEEFGKLLPRLLGAQVIVDPEAPSTVHLLPRVMKDSKNEGFVHVNQFYNDANFEAHMRGTAREIFVQSRRGGLALRGVAGSLGTSGHMSAAAFYLQSVDPSIRAVLVQPAQGDSIPGIRRVETGMLWINMLDISYTLAEVTLEEAMEAVVEVARSDGLVIGPSGGAAVKALAKKAAEGDLEPGDYVVVVPDTGFKYLSLVQNALEGAGDSV | soluble |
| MALAGAEVVVKMTPKSVAHVFKKEMSSLHTSLLHLKPSPFQATYLGLEMTIDHLQVVDFKMPKLSYETSASQSHMTFKLLGGSARLLGQYSAVYKTKREGQFEMIFEHFHMSVPVKRTALTKFTVASDECTLEVDESMITMSPVLPEQISAKIKSDLLDQLKEAACSNATQFFSKLNSHLIHFAEATDISQGGHPSHIDVELHFQNPTSEDDTAIHVDVTESVVNAELSKLYSSANTRFIWNDVPEIKELLKSCKTTECRFIEDGDIVSSFFDRPSIRIQSDNTVSLRLPLSTSLTTTNGKELFRIQTEVELNLEDIVLEHPENGEVFWSAKFHIKNIRILQTSSSRNFQKFATRMESWIEEHKLFMENLLNTYIQGSLPVHLRSPLAWTHRVHARPIFSTSSLSFHVHPHFSPSLRVLV | not soluble |
| MALFSPYALGATLYMPATRDDIVDVVFGEKIPELRSLVVCLEDAVALIDVDTALLNLRQVLTRIHDRGGRPANGPLLFVRPRDAAMARILNDWPLMAHVDGFVVPKLSLKSLTSWEEAVTNPALALMPTLETPEVFNPTAMVELGQALKASLHERIIALRIGGNDLMGCLGLRRNPAMTLYSTPMGYVIPMLAGVMGAQGFALTAPVFEQLATPDILEQELALDITNGLVGKTAIHPSQVNIIQNALRVSLEDMNSARMILNSVAPAVFKYNDAMCEPATHYKWATHIMERAKWHGVLPTPASIMDASIRLAEAVSLEHHHHHH | soluble |
| MALHQRMFSGNKINIVRKNHPLFLGYLNEQLCAYASAQLSQKEGRLLYLGVDEKYRQQGIATALMAQVWNFLHDSCQDKITLVQSDKAQAAGKLYKKLGFKTIRRLLSAQLIVN | not soluble |
